Experimental data reported in PMC6020293, “In Vitro Reconstitution of Functional Type III Protein Export and Insights into Flagellar Assembly” (mBio, 2018).

Biological target: the molecule itself
Assay: co-sedimentation; purified FlgE (4 µM) transported into inverted membrane vesicles with FlgD (0.6 or 4 µM), FliH2/FliI complex, FliJ and 5 mM ATP; after proteinase K and Triton X-100 centrifuged at 150,000 x g for 30 min; supernatant and precipitate immunoblotted; hook forms on the basal body inside the vesicle

B1: FlgE (natural protein)
chain: MSFSQAVSGLNAAATNLDVIGNNIANSATYGFKSGTASFADMFAGSKVGLGVKVAGITQDFTDGTTTNTGRGLDVAISQNGFFRLVDSNGSVFYSRNGQFKLDENRNLVNMQGMQLTGYPATGTPPTIQQGANPAPITIPNTLMAAKSTTTASMQINLNSTDPVPSKTPFSVSDADSYNKKGTVTVYDSQGNAHDMNVYFVKTKDNEWAVYTHDSSDPAATAPTTASTTLKFNENGILESGGTVNITTGTINGATAATFSLSFLNSMQQNTGANNIVATNQNGYKPGDLVSYQINNDGTVVGNYSNEQEQVLGQIVLANFANNEGLASQGDNVWAATQASGVALLGTAGSGNFGKLTNGALEASNVDLSKELVNMIVAQRNYQSNAQTIKTQDQILNTLVNLR
notes: FlgE, flagellar hook protein, Salmonella; also called hook protein FlgE
B1: binds.
